In the RNAGym collection of RNA variant scans (doi:10.7554/elife.80360):

B1: Hairpin Ribozyme (parent)
chain: GUCCUCUUUCACGUGCGCGUGAAAGAGAGAAGUGAACCAGAGAAACACACGUUGUGGUAUAUUACCUGGUA

Variants of: B1
Assay: self-cleavage, relative activity (ratio to wild type); higher = more cleavage; co-transcriptional

Question: Which self-cleavage does the source give for GUCCUCUUUCACGUGCGCGAGAAAGAGAGAAGUGAACCAGAGAAACACACUUUGUGGUAUAUUACCUGGUA [U20A G51U] here?
Answer: Its self-cleavage is 0.833.

Question: With GUCCUCUUUCACGUGCGCGAGAAAGAGAGAAGUGAACCAGAGAAACACACAUUGUGGUAUAUUACCUGGUA [U20A G51A] as the variant, how does the self-cleavage read?
Answer: The self-cleavage was 0.765.

Question: Which self-cleavage does the source give for GUCCUCUUUCACGUGCGCGAGAAAGAGAGAAGUGAACCAGAGAAAGACACGUUGUGGUAUAUUACCUGGUA [U20A C46G] here?
Answer: Its self-cleavage is 0.162.

Question: With GUCCUCUUUCACGUGCGCGAGAAAGAGAGAAGUGAACCAGAGAAAAACACGUUGUGGUAUAUUACCUGGUA [U20A C46A] as the variant, how does the self-cleavage read?
Answer: The self-cleavage was 0.265.

Question: With GUCCUCUUUCACGUGCGCGAGAAAGAGAGAAGUGAACCAGAGACACACACGUUGUGGUAUAUUACCUGGUA [U20A A44C] as the variant, how does the self-cleavage read?
Answer: Its self-cleavage is 0.202.

Question: For GUCCUCUUUCACGUGCGCGAGAAAGAGAGAAGUGAAUCAGAGAAACACACGUUGUGGUAUAUUACCUGGUA [U20A C37U], which self-cleavage is on record?
Answer: Its self-cleavage is 0.511.

Question: Which self-cleavage does the source give for GUCCUCUUUCACGUGCGCGAGAAAGAGAGAAGUGAACCAGAUAAACACACGUUGUGGUAUAUUACCUGGUA [U20A G42U] here?
Answer: Its self-cleavage is 0.346.

Question: For GUCCUCUUUCACGUGCGCGAGAAAGAGAGAAGUGAACCAGAAAAACACACGUUGUGGUAUAUUACCUGGUA [U20A G42A], which self-cleavage is on record?
Answer: The self-cleavage was 0.226.

Question: Which self-cleavage does the source give for GUCCUCUUUCACGUGCGCGAGAAAGAGAGAAGUGAACCAGAGAAACACACGUUGUGGUAUAUUAUCUGGUA [U20A C65U] here?
Answer: The self-cleavage was 0.388.

Question: Which self-cleavage does the source give for GUCCUCUUUCACGUGCGCGAGAAAGAGAGAAGUGAACCAGAGCAACACACGUUGUGGUAUAUUACCUGGUA [U20A A43C] here?
Answer: The self-cleavage was 0.0739.

Question: For GUCCUCUUUCACGUGCGCGAGAAAGAGAGAAGUGAACCAGAGAAACACACGUUGUGGUAUAUUACUUGGUA [U20A C66U], which self-cleavage is on record?
Answer: Its self-cleavage is 0.487.

Question: For GUCCUCUUUCACGUGCGCGAGAAAGAGAGAAGUGAACCAGAGAAACACACGUUGUGGUAUAUUACGUGGUA [U20A C66G], which self-cleavage is on record?
Answer: Its self-cleavage is 0.0899.

Question: Which self-cleavage does the source give for GUCCUCUUUCACGUGCGCGAGAAACAGAGAAGUGAACCAGAGAAACACACGUUGUGGUAUAUUACCUGGUA [U20A G25C] here?
Answer: The self-cleavage was 0.447.

Question: For GUCCUCUUUCACGUGCGCGAGAAAGAGAGAAGUGAACCAGAGAAACACACGUUGUGGUAUAUUACCUGAUA [U20A G69A], which self-cleavage is on record?
Answer: Its self-cleavage is 0.337.

Question: For GUCCUCUUUCACGUGCGCGAGAAAGAGAGAAGUGAACCAGAGAAACACACGUUGUGGUAUAUUACCUCGUA [U20A G68C], which self-cleavage is on record?
Answer: Its self-cleavage is 0.112.

Question: Which self-cleavage does the source give for GUCCUCUUUCACGUGCGCGAGAAAGAGAGAAGUUAACCAGAGAAACACACGUUGUGGUAUAUUACCUGGUA [U20A G34U] here?
Answer: The self-cleavage was 1.29.

Question: Which self-cleavage does the source give for GUCCUCUUUCACGUGCGCGAGAAAGAGAGAAGUGAACCAGAGAAACACACGUUGUGGUAUCUUACCUGGUA [U20A A61C] here?
Answer: The self-cleavage was 0.156.

Question: For GUCCUCUUUCACGUGCGCGAGAAAGAGAGAAUUGAACCAGAGAAACACACGUUGUGGUAUAUUACCUGGUA [U20A G32U], which self-cleavage is on record?
Answer: Its self-cleavage is 0.0356.

Question: For GUCCUCUUUCACGUGCGCGAGAAAGAGAGAACUGAACCAGAGAAACACACGUUGUGGUAUAUUACCUGGUA [U20A G32C], which self-cleavage is on record?
Answer: The self-cleavage was 0.174.

Question: Which self-cleavage does the source give for GUCCUCUUUCACGUGCGCGAGAAAGAGAGAAGUGAACCAUAGAAACACACGUUGUGGUAUAUUACCUGGUA [U20A G40U] here?
Answer: The self-cleavage was 0.153.

Question: Which self-cleavage does the source give for GUCCUCUUUCACGUGCGCGAGAAAGAGAGAAGUGAACCUGAGAAACACACGUUGUGGUAUAUUACCUGGUA [U20A A39U] here?
Answer: Its self-cleavage is 0.296.

Question: With GUCCUCUUUCACGUGCGCGAGAAAGAGAGAAGUGAACCAGAGAAUCACACGUUGUGGUAUAUUACCUGGUA [U20A A45U] as the variant, how does the self-cleavage read?
Answer: Its self-cleavage is 0.172.

Question: With GUCCUCUUUCACGUGCGCGAGAAAGAGAGAAGUGACCCAGAGAAACACACGUUGUGGUAUAUUACCUGGUA [U20A A36C] as the variant, how does the self-cleavage read?
Answer: The self-cleavage was 0.412.

Question: For GUCCUCUUUCACGUGCGCGAGAAAGAGAGAAGUGAACCAGAGAAACACACGUUGUUGUAUAUUACCUGGUA [U20A G56U], which self-cleavage is on record?
Answer: Its self-cleavage is 0.114.

Question: For GUCCUCUUUCACGUGCGCGAGAAAGAGAGAAGUGAACCAGAGAAACACACGUUGUGGUCUAUUACCUGGUA [U20A A59C], which self-cleavage is on record?
Answer: Its self-cleavage is 0.0988.

Question: For GUCCUCUUUCACGUGCGCGAGAAAGAGAGAAGUGAACCAGAGAAACACACGUUGUGGUGUAUUACCUGGUA [U20A A59G], which self-cleavage is on record?
Answer: Its self-cleavage is 0.182.

Question: With GUCCUCUUUCACGUGCGCGAGAAAGAGAGAAGUGAACCAGAGAAACACACGUUGUGGUAUAUUCCCUGGUA [U20A A64C] as the variant, how does the self-cleavage read?
Answer: The self-cleavage was 0.163.

Question: Which self-cleavage does the source give for GUCCUCUUUCACGUGCGCGAGAAAGAGAGAAGUGAACCAGAGAAACACACGAUGUGGUAUAUUACCUGGUA [U20A U52A] here?
Answer: The self-cleavage was 0.844.

Question: Which self-cleavage does the source give for GUCCUCUUUCACGUGCGCGAGAAAGAGAGAAGUGAACUAGAGAAACACACGUUGUGGUAUAUUACCUGGUA [U20A C38U] here?
Answer: The self-cleavage was 0.45.

Question: Which self-cleavage does the source give for GUCCUCUUUCACGUGCGCGAGAAAGAGAGAAGUGAACGAGAGAAACACACGUUGUGGUAUAUUACCUGGUA [U20A C38G] here?
Answer: The self-cleavage was 0.19.

Question: For GUCCUCUUUCACGUGCGCGAGAAAGAGAGAAGGGAACCAGAGAAACACACGUUGUGGUAUAUUACCUGGUA [U20A U33G], which self-cleavage is on record?
Answer: Its self-cleavage is 0.183.

Question: For GUCCUCUUUCACGUGCGCGAGAAAGAGAGAAGAGAACCAGAGAAACACACGUUGUGGUAUAUUACCUGGUA [U20A U33A], which self-cleavage is on record?
Answer: Its self-cleavage is 0.114.

Question: Which self-cleavage does the source give for GUCCUCUUUCACGUGCGCGAGAAAGAGAGAAGUGAACCAGAGAAACACAGGUUGUGGUAUAUUACCUGGUA [U20A C50G] here?
Answer: The self-cleavage was 0.132.

Question: Which self-cleavage does the source give for GUCCUCUUUCACGUGCGCGAGAAAGAGAGAAGUGAACCAGAGAAACAUACGUUGUGGUAUAUUACCUGGUA [U20A C48U] here?
Answer: Its self-cleavage is 0.137.

Question: Which self-cleavage does the source give for GUCCUCUUUCACGUGCGCGAGAAAGAGAGAAGUGUACCAGAGAAACACACGUUGUGGUAUAUUACCUGGUA [U20A A35U] here?
Answer: Its self-cleavage is 0.872.

Question: With GUCCUCUUUCACGUGCGCGAGAAAGAGAGAAGUGAACCAGAGAAACACACGUUGUGUUAUAUUACCUGGUA [U20A G57U] as the variant, how does the self-cleavage read?
Answer: Its self-cleavage is 0.259.

Question: Which self-cleavage does the source give for GUCCUCUUUCACGUGCGCGAGAAAGAAAGAAGUGAACCAGAGAAACACACGUUGUGGUAUAUUACCUGGUA [U20A G27A] here?
Answer: The self-cleavage was 0.385.

Question: For GUCCUCUUUCACGUGCGCGAGAAAGACAGAAGUGAACCAGAGAAACACACGUUGUGGUAUAUUACCUGGUA [U20A G27C], which self-cleavage is on record?
Answer: Its self-cleavage is 0.175.
